Test results reported in article PMC3229823 (Virology, 2011).
Read-outs that look alike come from different tables or passages of the source.

Legend:
[1] = biological target: the molecule itself
[2] = biological target: the molecule itself; experiment: SDS-resistant complexes on SDS-polyacrylamide gel, coomassie staining

Protein	binding result [1]	binding result [2]
MBP-SV40 Agno (full length SV40 agnoprotein fused to MBP) (natural protein) MVLRRLSRQASVKVRRSWTESKKTAQRLFVFVLELLLQFCEGEDTVDGKRKKPERLTEKPES	binds	
MBP-Agno (17-71) (domain or fragment) TWSGTKKRAQRILIFLLEFLLDFCTGEDSVDGKKRQRHSGLTEQTYSALPEPKAT		binds
